Measured values: patent publication US20240270846A1 (published 2024)

B1: GLS3000 H34K one-arm antibody (antibody, human IgG1, kappa, L234A L235A, N297A, name in Kabat numbering)
light: DIVMTQSPLSLPVTPGEPASISCRSSQSLVHSNRNTYLKWYQQKPGQAPRLLIYKVSNRFSGVPDRFSGSGSGTDFTLKISRVEAEDVGVYYCGQGTQVPYTFGQGTKLEIKRTVAAPSVFIFPPSDEQLKSGTASVVCLLNNFYPREAKVQWKVDNALQSGNSQESVTEQDSKDSTYSLSSTLTLSKADYEKHKVYACEVTHQGLSSPVTKSFNRGEC
heavy: QVQLVESGGGVVQPGRSLRLSCAASGFTFSNAWMHWVRQAPGKGLEWVAQIKAKSNNYATYYAESVKGRFTISRDDSKNSLYLQMNSLKTEDTAVYYCRYVHYGAYYGVDAWGQGTTVTVSSASTKGPSVFPLAPSSKSTSGGTAALGCLVKDYFPEPVTVSWNSGALTSGVHTFPAVLQSSGLYSLSSVVTVPSSSLGTQTYICNVNHKPSNTKVDKKVEPKSCDKTHTCPPCPAPEAAGGPSVFLFPPKPKDTLMISRTPEVTCVVVDVSHEDPEVKFNWYVDGVEVHNAKTKPREEQYASTYRVVSVLTVLHQDWLNGKEYKCKVSNKALPAPIEKTISKAKGQPREPQVYTLPPSRCELTKNQVSLSCAVKGFYPSDIAVEWESNGQPENNYKTTPPVLDSDGSFFLVSKLTVDKSRWQQGNVFSCSVMHEALHNHYTQKSLSLSPDYKDDDDK
chain: EPKSSDKTHTCPPCPAPELLGGPSVFLFPPKPKDTLMISRTPEVTCVVVDVSHEDPEVKFNWYVDGVEVHNAKTKPREEQYNSTYRVVSVLTVLHQDWLNGKEYKCKVSNKALPAPIEKTISKAKGQPREPQVCTLPPSRDELTKNQVSLWCLVKGFYPSDIAVEWESNGQPENNYKTTPPVLDSDGSFFLYSKLTVDKSRWQQGNVFSCSVMHEALHNRYTQKSLSLSP
B2: GLS3000 H34P one-arm antibody (antibody, human IgG1, kappa, L234A L235A, N297A, name in Kabat numbering)
light: DIVMTQSPLSLPVTPGEPASISCRSSQSLVHSNRNTYLPWYQQKPGQAPRLLIYKVSNRFSGVPDRFSGSGSGTDFTLKISRVEAEDVGVYYCGQGTQVPYTFGQGTKLEIKRTVAAPSVFIFPPSDEQLKSGTASVVCLLNNFYPREAKVQWKVDNALQSGNSQESVTEQDSKDSTYSLSSTLTLSKADYEKHKVYACEVTHQGLSSPVTKSFNRGEC
heavy: QVQLVESGGGVVQPGRSLRLSCAASGFTFSNAWMHWVRQAPGKGLEWVAQIKAKSNNYATYYAESVKGRFTISRDDSKNSLYLQMNSLKTEDTAVYYCRYVHYGAYYGVDAWGQGTTVTVSSASTKGPSVFPLAPSSKSTSGGTAALGCLVKDYFPEPVTVSWNSGALTSGVHTFPAVLQSSGLYSLSSVVTVPSSSLGTQTYICNVNHKPSNTKVDKKVEPKSCDKTHTCPPCPAPEAAGGPSVFLFPPKPKDTLMISRTPEVTCVVVDVSHEDPEVKFNWYVDGVEVHNAKTKPREEQYASTYRVVSVLTVLHQDWLNGKEYKCKVSNKALPAPIEKTISKAKGQPREPQVYTLPPSRCELTKNQVSLSCAVKGFYPSDIAVEWESNGQPENNYKTTPPVLDSDGSFFLVSKLTVDKSRWQQGNVFSCSVMHEALHNHYTQKSLSLSPDYKDDDDK
chain: EPKSSDKTHTCPPCPAPELLGGPSVFLFPPKPKDTLMISRTPEVTCVVVDVSHEDPEVKFNWYVDGVEVHNAKTKPREEQYNSTYRVVSVLTVLHQDWLNGKEYKCKVSNKALPAPIEKTISKAKGQPREPQVCTLPPSRDELTKNQVSLWCLVKGFYPSDIAVEWESNGQPENNYKTTPPVLDSDGSFFLYSKLTVDKSRWQQGNVFSCSVMHEALHNRYTQKSLSLSP
B3: GLS3000 H34Q one-arm antibody (antibody, human IgG1, kappa, L234A L235A, N297A, name in Kabat numbering)
light: DIVMTQSPLSLPVTPGEPASISCRSSQSLVHSNRNTYLQWYQQKPGQAPRLLIYKVSNRFSGVPDRFSGSGSGTDFTLKISRVEAEDVGVYYCGQGTQVPYTFGQGTKLEIKRTVAAPSVFIFPPSDEQLKSGTASVVCLLNNFYPREAKVQWKVDNALQSGNSQESVTEQDSKDSTYSLSSTLTLSKADYEKHKVYACEVTHQGLSSPVTKSFNRGEC
heavy: QVQLVESGGGVVQPGRSLRLSCAASGFTFSNAWMHWVRQAPGKGLEWVAQIKAKSNNYATYYAESVKGRFTISRDDSKNSLYLQMNSLKTEDTAVYYCRYVHYGAYYGVDAWGQGTTVTVSSASTKGPSVFPLAPSSKSTSGGTAALGCLVKDYFPEPVTVSWNSGALTSGVHTFPAVLQSSGLYSLSSVVTVPSSSLGTQTYICNVNHKPSNTKVDKKVEPKSCDKTHTCPPCPAPEAAGGPSVFLFPPKPKDTLMISRTPEVTCVVVDVSHEDPEVKFNWYVDGVEVHNAKTKPREEQYASTYRVVSVLTVLHQDWLNGKEYKCKVSNKALPAPIEKTISKAKGQPREPQVYTLPPSRCELTKNQVSLSCAVKGFYPSDIAVEWESNGQPENNYKTTPPVLDSDGSFFLVSKLTVDKSRWQQGNVFSCSVMHEALHNHYTQKSLSLSPDYKDDDDK
chain: EPKSSDKTHTCPPCPAPELLGGPSVFLFPPKPKDTLMISRTPEVTCVVVDVSHEDPEVKFNWYVDGVEVHNAKTKPREEQYNSTYRVVSVLTVLHQDWLNGKEYKCKVSNKALPAPIEKTISKAKGQPREPQVCTLPPSRDELTKNQVSLWCLVKGFYPSDIAVEWESNGQPENNYKTTPPVLDSDGSFFLYSKLTVDKSRWQQGNVFSCSVMHEALHNRYTQKSLSLSP
B4: GLS3000 H34L one-arm antibody (antibody, human IgG1, kappa, L234A L235A, N297A, name in Kabat numbering)
light: DIVMTQSPLSLPVTPGEPASISCRSSQSLVHSNRNTYLLWYQQKPGQAPRLLIYKVSNRFSGVPDRFSGSGSGTDFTLKISRVEAEDVGVYYCGQGTQVPYTFGQGTKLEIKRTVAAPSVFIFPPSDEQLKSGTASVVCLLNNFYPREAKVQWKVDNALQSGNSQESVTEQDSKDSTYSLSSTLTLSKADYEKHKVYACEVTHQGLSSPVTKSFNRGEC
heavy: QVQLVESGGGVVQPGRSLRLSCAASGFTFSNAWMHWVRQAPGKGLEWVAQIKAKSNNYATYYAESVKGRFTISRDDSKNSLYLQMNSLKTEDTAVYYCRYVHYGAYYGVDAWGQGTTVTVSSASTKGPSVFPLAPSSKSTSGGTAALGCLVKDYFPEPVTVSWNSGALTSGVHTFPAVLQSSGLYSLSSVVTVPSSSLGTQTYICNVNHKPSNTKVDKKVEPKSCDKTHTCPPCPAPEAAGGPSVFLFPPKPKDTLMISRTPEVTCVVVDVSHEDPEVKFNWYVDGVEVHNAKTKPREEQYASTYRVVSVLTVLHQDWLNGKEYKCKVSNKALPAPIEKTISKAKGQPREPQVYTLPPSRCELTKNQVSLSCAVKGFYPSDIAVEWESNGQPENNYKTTPPVLDSDGSFFLVSKLTVDKSRWQQGNVFSCSVMHEALHNHYTQKSLSLSPDYKDDDDK
chain: EPKSSDKTHTCPPCPAPELLGGPSVFLFPPKPKDTLMISRTPEVTCVVVDVSHEDPEVKFNWYVDGVEVHNAKTKPREEQYNSTYRVVSVLTVLHQDWLNGKEYKCKVSNKALPAPIEKTISKAKGQPREPQVCTLPPSRDELTKNQVSLWCLVKGFYPSDIAVEWESNGQPENNYKTTPPVLDSDGSFFLYSKLTVDKSRWQQGNVFSCSVMHEALHNRYTQKSLSLSP
B5: GLS3000 H34N one-arm antibody (antibody, human IgG1, kappa, L234A L235A, N297A, name in Kabat numbering)
light: DIVMTQSPLSLPVTPGEPASISCRSSQSLVHSNRNTYLNWYQQKPGQAPRLLIYKVSNRFSGVPDRFSGSGSGTDFTLKISRVEAEDVGVYYCGQGTQVPYTFGQGTKLEIKRTVAAPSVFIFPPSDEQLKSGTASVVCLLNNFYPREAKVQWKVDNALQSGNSQESVTEQDSKDSTYSLSSTLTLSKADYEKHKVYACEVTHQGLSSPVTKSFNRGEC
heavy: QVQLVESGGGVVQPGRSLRLSCAASGFTFSNAWMHWVRQAPGKGLEWVAQIKAKSNNYATYYAESVKGRFTISRDDSKNSLYLQMNSLKTEDTAVYYCRYVHYGAYYGVDAWGQGTTVTVSSASTKGPSVFPLAPSSKSTSGGTAALGCLVKDYFPEPVTVSWNSGALTSGVHTFPAVLQSSGLYSLSSVVTVPSSSLGTQTYICNVNHKPSNTKVDKKVEPKSCDKTHTCPPCPAPEAAGGPSVFLFPPKPKDTLMISRTPEVTCVVVDVSHEDPEVKFNWYVDGVEVHNAKTKPREEQYASTYRVVSVLTVLHQDWLNGKEYKCKVSNKALPAPIEKTISKAKGQPREPQVYTLPPSRCELTKNQVSLSCAVKGFYPSDIAVEWESNGQPENNYKTTPPVLDSDGSFFLVSKLTVDKSRWQQGNVFSCSVMHEALHNHYTQKSLSLSPDYKDDDDK
chain: EPKSSDKTHTCPPCPAPELLGGPSVFLFPPKPKDTLMISRTPEVTCVVVDVSHEDPEVKFNWYVDGVEVHNAKTKPREEQYNSTYRVVSVLTVLHQDWLNGKEYKCKVSNKALPAPIEKTISKAKGQPREPQVCTLPPSRDELTKNQVSLWCLVKGFYPSDIAVEWESNGQPENNYKTTPPVLDSDGSFFLYSKLTVDKSRWQQGNVFSCSVMHEALHNRYTQKSLSLSP
B6: GLS3000 H34M one-arm antibody (antibody, human IgG1, kappa, L234A L235A, N297A, name in Kabat numbering)
light: DIVMTQSPLSLPVTPGEPASISCRSSQSLVHSNRNTYLMWYQQKPGQAPRLLIYKVSNRFSGVPDRFSGSGSGTDFTLKISRVEAEDVGVYYCGQGTQVPYTFGQGTKLEIKRTVAAPSVFIFPPSDEQLKSGTASVVCLLNNFYPREAKVQWKVDNALQSGNSQESVTEQDSKDSTYSLSSTLTLSKADYEKHKVYACEVTHQGLSSPVTKSFNRGEC
heavy: QVQLVESGGGVVQPGRSLRLSCAASGFTFSNAWMHWVRQAPGKGLEWVAQIKAKSNNYATYYAESVKGRFTISRDDSKNSLYLQMNSLKTEDTAVYYCRYVHYGAYYGVDAWGQGTTVTVSSASTKGPSVFPLAPSSKSTSGGTAALGCLVKDYFPEPVTVSWNSGALTSGVHTFPAVLQSSGLYSLSSVVTVPSSSLGTQTYICNVNHKPSNTKVDKKVEPKSCDKTHTCPPCPAPEAAGGPSVFLFPPKPKDTLMISRTPEVTCVVVDVSHEDPEVKFNWYVDGVEVHNAKTKPREEQYASTYRVVSVLTVLHQDWLNGKEYKCKVSNKALPAPIEKTISKAKGQPREPQVYTLPPSRCELTKNQVSLSCAVKGFYPSDIAVEWESNGQPENNYKTTPPVLDSDGSFFLVSKLTVDKSRWQQGNVFSCSVMHEALHNHYTQKSLSLSPDYKDDDDK
chain: EPKSSDKTHTCPPCPAPELLGGPSVFLFPPKPKDTLMISRTPEVTCVVVDVSHEDPEVKFNWYVDGVEVHNAKTKPREEQYNSTYRVVSVLTVLHQDWLNGKEYKCKVSNKALPAPIEKTISKAKGQPREPQVCTLPPSRDELTKNQVSLWCLVKGFYPSDIAVEWESNGQPENNYKTTPPVLDSDGSFFLYSKLTVDKSRWQQGNVFSCSVMHEALHNRYTQKSLSLSP

target: T1, CD3 epsilon homodimer protein (UniProt P07766 23-126); test: SPR Biacore T200, CD3e homodimer on chip, antibody analyte;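 further: CD3 epsilon homodimer amine-coupled on CM4 sensor chip, antibodies injected as analyte at 25 °C in HBS-EP+, ratio ≥0.8 taken as binding retained versus unaltered parent antibody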
T1 construct: Construct of the homodimer is not described; also called CD3 (CD3 epsilon)
T1 sequence (P07766 23-126): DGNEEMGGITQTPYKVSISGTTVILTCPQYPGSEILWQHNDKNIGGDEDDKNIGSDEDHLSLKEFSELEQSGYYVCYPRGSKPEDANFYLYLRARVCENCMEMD

Row | Binder | ratio of amounts bound (altered form/GLS3000)
1 | B1 | 2.17
2 | B2 | 0.34
3 | B3 | 0.25
4 | B4 | 0.59
5 | B5 | 0.65
6 | B6 | 0.35
